Experimental data as given in publication PMC3734085 (The Journal of Cell Biology, 2013).
Where a chain is given by its changes, count along the chain named. Names may count otherwise.

T1: Snc2p-M2-His6 (R75E R79E K82E) reconstituted into liposomes (S. cerevisiae, UniProt P33328 1-115, R75E | R79E | K82E)
T1 sequence: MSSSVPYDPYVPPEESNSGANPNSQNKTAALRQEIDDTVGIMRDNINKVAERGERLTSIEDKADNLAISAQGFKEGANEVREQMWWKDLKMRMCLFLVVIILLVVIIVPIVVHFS

B1: His-MBP-Sec9ct (416–651 aa) (domain or fragment)
chain: ARQQQEEDEAVDEIKQEIKFTKQSSVASTRNTLKMAQDAERAGMNTLGMLGHQSEQLNNVEGNLDLMKVQNKVADEKVAELKKLNRSILAVHVSNPFNSKRRRREREEQLKNRKIEEKLMREQTSQQLSQSTQRIEGAMNANNNISEVRERYQRKNVLEKAKRYQFENDEEDDEMELEIDRNLDQIQQVSNRLKKMALTTGKELDSQQKRLNNIEESTDDLDINLHMNTNRLAGIR
B2: Snc2p-His6, full-length Snc2p reconstituted into liposomes (natural protein)
chain: T1 sequence with E75R, E79R, E82K
B3: GST-Snc2p fragment (28–92 aa) (domain or fragment)
chain: TAALRQEIDDTVGIMRDNINKVAERGERLTSIEDKADNLAISAQGFKRGANRVRKQMWWKDLKMR
B4: His-tagged Sec6p (pET46-Sec6) (natural protein)
chain: MSSDPLQQVCDLIKGDLSLERVRDIKEQLLKEKSVVEYQLNKESDKYYGEVEESLKLLNLSKNSVTSIKQQINEVNKLGNDNRFAINRYDILFRATKLYETVNTTSSIYDRIYNFVALMEHIERLLVAELAEDALETGCPHLLEIHFLLTSARDFQEQVVVMAKEATEDAQRTVMKLFSRLSGIISKFDKLLDGLTYDIVEMARAEQISLAIRLFKIYDLEEREDLRIEAIRNIIKKKEIEIEKSSIKKLPNSKNTARLQDETPKVIEYPTNKGLYQEIMSGTISTRTAPRGYKHFLINGINNSISEMFGEMREKYVGDQKFDVLDNMDWIFNELIIVKEHIANCCPPHWNIFEVYFDQYYKELHSLITDLVESEPETIIILDILAFDKTFQDTLKQDFGFTKSEVKSVIGDKEKETLFKDYLNLIVVKMTEWIGNLEKAEFDVFLERSTPPHSDSDGLLFLDGTKTCFQMFTQQVEVAAGTNQAKILVGVVERFSDLLTKRQKNWISKISEEIKKQINYNHKYDIDPESITPEDECPGGLVEYLIAVSNDQMKAADYAVAISSKYGKLVSKVYEKQITNHLEGTLDGFAEVAQCSSLGLITLMFDDLRKPYQEIFSKTWYMGSQAQQIADTLDEYLLDIKPQMNSVLFVNFIDNVIGETIIKFLTALSFEHSFKNKNNKFLEAMKRDFEIFYQLFVKVLDGNESKDTLITQNFTVMEFFMDLSCEPIDSILDIWQKYLEVYWDSRIDLLVGILKCRKDVSSSERKKIVQQATEMLHEYRRNMEANGVDREPTLMRRFVLEFEKQ
B5: GST-Snc2p (cytosolic domain of Snc2p, 1–92 aa, fused to GST) (domain or fragment)
chain: MSSSVPYDPYVPPEESNSGANPNSQNKTAALRQEIDDTVGIMRDNINKVAERGERLTSIEDKADNLAISAQGFKRGANRVRKQMWWKDLKMR
B6: GST-Snc2p E60K D61R D64R (M4) (domain or fragment)
chain: B5 chain with E60K, D61R, D64R
B7: GST-Snc2p K82A (domain or fragment)
chain: B5 chain with K82A
B8: GST-Snc2p R75A (domain or fragment)
chain: B5 chain with R75A
B9: GST-Snc2p E51A E54A (M5) (domain or fragment)
chain: B5 chain with E51A, E54A
B10: GST-Snc2p E51R E54R (M6) (domain or fragment)
chain: B5 chain with E51R, E54R
B11: GST-Snc2p E60A D61A D64A (M3) (domain or fragment)
chain: B5 chain with E60A, D61A, D64A

What was measured:
[1] = target: B4; assay: pull-down
[2] = target: B4; assay: […], pH 7.4, 0.5 µg/µl BSA
[3] = target: T1, Snc2p-M2-His6 (R75E R79E K82E) …; assay: […], pH 7.4, 0.5 µg/µl BSA

binding result [1] | Binder | further results
binds | B1 | –
– | B2 | binding result [2]: binds
binds | B3 | –
– | B4 | fold reduction in binding against wild-type Snc2p liposomes [3]: ≥ 2 fold
– | B5 | Kd [1]: 13 ± 6 µM
binds | B6 | –
binds | B7 | –
binds | B8 | –
binds | B9 | –
binds | B10 | –
binds | B11 | –
– | GERLTSIEDKADNLAISAQGFKRGANRVRKQMWWKDLKMR (domain or fragment) [GST-Snc2p fragment (53–92 aa)] | Kd [1]: 18 µM
